Test results: article PMC3814354, “Interaction of bacterial fatty-acid-displaced regulators with DNA is interrupted by tyrosine phosphorylation in the helix-turn-helix domain”
Residue numbers refer to the chain shown, from its start.

Key:
Conditions in all cases: protein: recombinant; tags: N-terminal 6xHis (pQE-30); chain copies: 2; label: none (ethidium bromide stain); blunt
[1] = target: T1, FatR Y45F (Bacillus subtilis, UniProt O08335 1-194, Y45F); experiment: EMSA; 960 and 1920 pmol protein, 30 pmol DNA (up to 64:1); EMSA: 100 mM Tris-HCl pH 7.5, 15 min at 37 C, 8% native PAGE in Tris-glycine (2.5 mM Tris, 192 mM glycine), ethidium bromide stain
T1 sequence: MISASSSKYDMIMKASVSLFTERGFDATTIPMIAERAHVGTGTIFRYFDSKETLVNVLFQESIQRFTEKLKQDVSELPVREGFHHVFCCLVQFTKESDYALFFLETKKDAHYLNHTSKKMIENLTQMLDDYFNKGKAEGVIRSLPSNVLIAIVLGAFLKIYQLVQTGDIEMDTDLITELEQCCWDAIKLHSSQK

[2] = target: T2, FatR Y45E (Bacillus subtilis, UniProt O08335 1-194, Y45E); experiment: as above
T2 sequence: T1 sequence with F45E

[3] = target: T3, FatR wild type (Bacillus subtilis, UniProt O08335 1-194); experiment: EMSA; 120-1920 pmol protein, 30 pmol DNA (protein:DNA 4:1 to 64:1); EMSA: 100 mM Tris-HCl pH 7.5, 15 min at 37 C, 8% native PAGE in Tris-glycine (2.5 mM Tris, 192 mM glycine), ethidium bromide stain
T3 sequence: T1 sequence with F45Y

B1: fatR operator (BsOP1/BsOP2) (dsDNA)
DNA 1: TACGGAATGAATATTCATTCCTTT
DNA 2: AAAGGAATGAATATTCATTCCGTA
B1: no binding [1]; no binding [2]; binds [3].
